Data on 51 sequences can be found in the supplement of paper PMC11780869.

The test system of this series is Bacillus subtilis. The series is described as follows: cleaved RNA product abundance (RNA/gDNA barcode ratio) relative to median wild-type variant (ratio to wild type); higher = more accumulation of the downstream cleavage product. Conditions: cleavage site: cggR-gapA (positions -7 to +36 mutated). In a few lines:
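Oligos with a 9% error rate were used to build barcoded, mutagenized RNase Y cleavage-site windows within truncated aprE or tetM reporter mRNAs, which were integrated into the B. subtilis chromosome. Cultures were grown in LB at 37°C between OD600 0.0003 and 0.3. Cleaved RNA was gel-selected, reverse transcribed and barcode-sequenced, as were genomic DNA barcodes, and UMIs were collapsed. Cleaved product abundance is the scaled RNA:gDNA barcode ratio, with the median construct carrying the unmutated site as reference.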

Setting [1] is: experiment (reporter, strain, medium): exp 4a: truncated aprE reporter, strain BJT201 with 2% xylose (RNase J1 expressed).
Setting [2] is: experiment (reporter, strain, medium): exp 2b: truncated aprE reporter, strain BJT200.
The mark [3] stands for this setting: experiment (reporter, strain, medium): exp 6: tetM reporter, strain 168.

As to “ACAGACGAAGGAGCCGCAAAGAAGTTATTAAAGGATGAATAATCCCGCAATATAAATATCTCTCACTTATTTAAA”, under setting [1], the “cleaved RNA product abundance” value amounted to 0.219. Take “ACAGACGAAGGAGCCGCAAAGAAGTTATTAAAGGATGAATAATCCCTAAATATAAATATCTCTCACTTATTTAAA”: the “cleaved RNA product abundance” value under setting [2] turned out to be 0.232 and the “cleaved RNA product abundance” value under setting [1] is 0.342. “ACAGACGAAGGAGCCGCAAAGAAGTTATTAAAGGATGAATAATCCCTCAAAATAAATATCTCTCACTTATTTAAA”: the “cleaved RNA product abundance” value by setting is: under setting [2], 0.148; under setting [1], 0.152.

“ACAGACGAAGGAGCCGCAAAGAAGTTATTAAAGGATGAATAATCCCTCAACATAAATATCTCTCACTTATTTAAA”: the “cleaved RNA product abundance” value under setting [1] is 0.265. Consider “ACAGACGAAGGAGCCGCAAAGAAGTTATTAAAGGATGAATAATCCCTCAATACAAATATCTCTCACTTATTTAAA”, for which the “cleaved RNA product abundance” value was 0.126 under setting [2] and 0.0875 under setting [1]. For “ACAGACGAAGGAGCCGCAAAGAAGTTATTAAAGGATGAATAATCCCTCAATAGAAATATCTCTCACTTATTTAAA”, in that order: 0.111 and 0.107.

For “ACAGACGAAGGAGCCGCAAAGAAGTTATTAAAGGATGAATAATCCCTCAATATAAAAATCTCTCACTTATTTAAA”, the “cleaved RNA product abundance” value is 0.147 under setting [2] and 0.244 under setting [1].

As for “ACAGACGAAGGAGCCGCAAAGAAGTTATTAAAGGATGAATAATCCCTCAATATAAACATCTCTCACTTATTTAAA”, the “cleaved RNA product abundance” value under setting [1] stood at 0.206. Turning to “ACAGACGAAGGAGCCGCAAAGAAGTTATTAAAGGATGAATAATCCCTCAATATAAATAACTCTCACTTATTTAAA”, the “cleaved RNA product abundance” value reads like this: under setting [2], 0.157; under setting [1], 0.229. Take “ACAGACGAAGGAGCCGCAAAGAAGTTATTAAAGGATGAATAATCCCTCAATATAAATACCTCTCACTTATTTAAA”: under setting [1], the “cleaved RNA product abundance” value amounted to 0.13. Take “ACAGACGAAGGAGCCGCAAAGAAGTTATTAAAGGATGAATAATCCCTCAATATAAATAGCTCTCACTTATTTAAA”: the “cleaved RNA product abundance” value under setting [1] was 0.176. In the case of “ACAGACGAAGGAGCCGCAAAGAAGTTATTAAAGGATGAATAATCCCTCAATATAAATATATCTCACTTATTTAAA”, the “cleaved RNA product abundance” value under setting [1] came out at 0.259. Consider “ACAGACGAAGGAGCCGCAAAGAAGTTATTAAAGGATGAATAATCCCTCAATATAAATATCTCTCACTTATTTAAA”, for which the “cleaved RNA product abundance” value reads like this: under setting [2], 0.162; under setting [1], 0.211; under setting [3], 0.242. Regarding “ACAGACGAAGGAGCCGCAAAGAAGTTATTAAAGGATGAATAATCCCTCAATATAAATATTTCTCACTTATTTAAA”, the “cleaved RNA product abundance” value under setting [1] turned out to be 0.247. Turning to “ACAGACGAAGGAGCCGCAAAGAAGTTATTAAAGGATGAATAATCCCTCAATATAAATCTCTCTCACTTATTTAAA”, the “cleaved RNA product abundance” value under setting [1] is 0.208. On to “ACAGACGAAGGAGCCGCAAAGAAGTTATTAAAGGATGAATAATCCCTCAATATAAATGTCTCTCACTTATTTAAA”, for which the “cleaved RNA product abundance” value was determined as 0.136 under setting [2] and 0.155 under setting [1]. Take “ACAGACGAAGGAGCCGCAAAGAAGTTATTAAAGGATGAATAATCCCTCAATATAATTATCTCTCACTTATTTAAA”: under setting [1], the “cleaved RNA product abundance” value amounted to 0.161. As for “ACAGACGAAGGAGCCGCAAAGAAGTTATTAAAGGATGAATAATCCCTCAATATACATATCTCTCACTTATTTAAA”, the “cleaved RNA product abundance” value is, setting by setting: under setting [1], 0.17; under setting [3], 0.136.

Take “ACAGACGAAGGAGCCGCAAAGAAGTTATTAAAGGATGAATAATCCCTCAATATAGATATCTCTCACTTATTTAAA”: under setting [1], the “cleaved RNA product abundance” value was 0.0996. On the same count and under the same terms, the value for “ACAGACGAAGGAGCCGCAAAGAAGTTATTAAAGGATGAATAATCCCTCAATATATATATCTCTCACTTATTTAAA” was 0.16. In the case of “ACAGACGAAGGAGCCGCAAAGAAGTTATTAAAGGATGAATAATCCCTCAATATGAATATCTCTCACTTATTTAAA”, the “cleaved RNA product abundance” value is 0.094 under setting [2] and 0.0586 under setting [1]. “ACAGACGAAGGAGCCGCAAAGAAGTTATTAAAGGATGAATAATCCCTCAATATTAATATCTCTCACTTATTTAAA”: the “cleaved RNA product abundance” value under setting [1] came to 0.0494. On to “ACAGACGAAGGAGCCGCAAAGAAGTTATTAAAGGATGAATAATCCCTCAATGTAAATATCTCTCACTTATTTAAA”, for which the “cleaved RNA product abundance” value reads like this: under setting [2], 0.0901; under setting [1], 0.0731. As for “ACAGACGAAGGAGCCGCAAAGAAGTTATTAAAGGATGAATAATCCCTCAATTTAAATATCTCTCACTTATTTAAA”, the “cleaved RNA product abundance” value runs as follows: under setting [2], 0.088; under setting [1], 0.0949. For “ACAGACGAAGGAGCCGCAAAGAAGTTATTAAAGGATGAATAATCCCTCACTATAAATATCTCTCACTTATTTAAA”, in that order: 0.113 and 0.152. As for “ACAGACGAAGGAGCCGCAAAGAAGTTATTAAAGGATGAATAATCCCTCAGTATAAATATCTCTCACTTATTTAAA”, the “cleaved RNA product abundance” value under setting [1] is 0.122. In the case of “ACAGACGAAGGAGCCGCAAAGAAGTTATTAAAGGATGAATAATCCCTCATTATAAATATCTCTCACTTATTTAAA”, the “cleaved RNA product abundance” value under setting [1] came to 0.245. Turning to “ACAGACGAAGGAGCCGCAAAGAAGTTATTAAAGGATGAATAATCCCTCCATATAAATATCTCTCACTTATTTAAA”, the “cleaved RNA product abundance” value under setting [1] is 0.0862. “ACAGACGAAGGAGCCGCAAAGAAGTTATTAAAGGATGAATAATCCCTCCTTATAAATATCTCTCACTTATTTAAA”: the “cleaved RNA product abundance” value under setting [1] came out at 0.0791. On to “ACAGACGAAGGAGCCGCAAAGAAGTTATTAAAGGATGAATAATCCCTCGATATAAATATCTCTCACTTATTTAAA”, for which the “cleaved RNA product abundance” value is, setting by setting: under setting [2], 0.0861; under setting [1], 0.0487.

As to “ACAGACGAAGGAGCCGCAAAGAAGTTATTAAAGGATGAATAATCCCTCTATATAAAAATCTCTCACTTATTTAAA”, under setting [1], the “cleaved RNA product abundance” value worked out at 0.229. As to “ACAGACGAAGGAGCCGCAAAGAAGTTATTAAAGGATGAATAATCCCTCTATATAAATATCTCTCACTTATTTAAA”, the “cleaved RNA product abundance” value under setting [2] came to 0.132 and the “cleaved RNA product abundance” value under setting [1] was determined as 0.18. As to “ACAGACGAAGGAGCCGCAAAGAAGTTATTAAAGGATGAATAATCCCTGAATATAAATATCTCTCACTTATTTAAA”, the “cleaved RNA product abundance” value under setting [2] was 0.133 and the “cleaved RNA product abundance” value under setting [1] came out at 0.171. For “ACAGACGAAGGAGCCGCAAAGAAGTTATTAAAGGATGAATAATCCCTTAATATAAATATCTCTCACTTATTTAAA”, the “cleaved RNA product abundance” value by setting is: under setting [2], 1.16; under setting [1], 1.06. Turning to “ACAGACGAAGGAGCCGCAAAGAAGTTATTAAAGGATGAATAATCCGTCAATATAAATATCTCTCACTTATTTAAA”, the “cleaved RNA product abundance” value by setting is: under setting [2], 0.16; under setting [1], 0.161. For “ACAGACGAAGGAGCCGCAAAGAAGTTATTAAAGGATGAATAATCCTTCAATATAAATATCTCTCACTTATTTAAA”, in that order: 0.646 and 0.86. As for “ACAGACGAAGGAGCCGCAAAGAAGTTATTAAAGGATGAATAATCTCTCAATATAAATATCTCTCACTTATTTAAA”, under setting [1], the “cleaved RNA product abundance” value is 0.149. Consider “ACAGACGAAGGAGCCGCAAAGAAGTTATTAAAGGATGAATAATGCCTCAATATAAATATCTCTCACTTATTTAAA”, for which the “cleaved RNA product abundance” value under setting [2] amounted to 0.118 and the “cleaved RNA product abundance” value under setting [1] worked out at 0.087. “ACAGACGAAGGAGCCGCAAAGAAGTTATTAAAGGATGAATAATTCCTCAATATAAATATCTCTCACTTATTTAAA”: the “cleaved RNA product abundance” value amounted to 0.0999 under setting [2] and 0.172 under setting [1]. For “ACAGACGAAGGAGCCGCAAAGAAGTTATTAAAGGATGAATACTCCCTCAATATAAATATCTCTCACTTATTTAAA”, the “cleaved RNA product abundance” value is, setting by setting: under setting [2], 0.117; under setting [1], 0.108. For the sequence “ACAGACGAAGGAGCCGCAAAGAAGTTATTAAAGGATGAATAGTCCCTCAATATAAATATCTCTCACTTATTTAAA”, the “cleaved RNA product abundance” value under setting [2] was 0.124. As to “ACAGACGAAGGAGCCGCAAAGAAGTTATTAAAGGATGAATATTCCCTAAATATAAATATCTCTCACTTATTTAAA”, the “cleaved RNA product abundance” value under setting [2] is 0.0923. With “ACAGACGAAGGAGCCGCAAAGAAGTTATTAAAGGATGAATATTCCCTCAATATAAATATCTCTCACTTATTTAAA”, under setting [1], the “cleaved RNA product abundance” value turned out to be 0.183. For “ACAGACGAAGGAGCCGCAAAGAAGTTATTAAAGGATGAATCATCCCTCAATATAAATATCTCTCACTTATTTAAA”, the “cleaved RNA product abundance” value under setting [2] came out at 0.178 and the “cleaved RNA product abundance” value under setting [1] is 0.212.

With “ACAGACGAAGGAGCCGCAAAGAAGTTATTAAAGGATGAATGATCCCTCAATATAAATATCTCTCACTTATTTAAA”, the “cleaved RNA product abundance” value under setting [2] stood at 0.0792 and the “cleaved RNA product abundance” value under setting [1] worked out at 0.155.

On to “ACAGACGAAGGAGCCGCAAAGAAGTTATTAAAGGATGAATTATCCCTCAATATAAATATCTCTCACTTATTTAAA”, for which the “cleaved RNA product abundance” value reads like this: under setting [2], 0.14; under setting [1], 0.149. In the case of “ACAGACGAAGGAGCCGCAAAGAAGTTATTAAAGGATGACTAATCCCTCAATATAAATATCTCTCACTTATTTAAA”, the “cleaved RNA product abundance” value turned out to be 0.0975 under setting [2] and 0.133 under setting [1]. As to “ACAGACGAAGGAGCCGCAAAGAAGTTATTAAAGGATGAGTAATCCCTCAATATAAATATCTCTCACTTATTTAAA”, under setting [1], the “cleaved RNA product abundance” value turned out to be 0.202.

As to “ACAGACGAAGGAGCCGCAAAGAAGTTATTAAAGGATGATTAATCCCTCAATATAAATATCTCTCACTTATTTAAA”, the “cleaved RNA product abundance” value runs as follows: under setting [2], 0.122; under setting [1], 0.184. In the case of “ACAGACGAAGGAGCCGCAAAGAAGTTATTAAAGGATGCATAATCCCTCAATATAAATATCTCTCACTTATTTAAA”, the “cleaved RNA product abundance” value under setting [1] was found to be 0.312.

Take “ACAGACGAAGGAGCCGCAAAGAAGTTATTAAAGGATGGATAATCCCTCAATATAAATATCTCTCACTTATTTAAA”: the “cleaved RNA product abundance” value under setting [1] is 0.141.
